Laboratory results: article PMC7531507

Legend:
mouse GLP-1R (mouse) = mouse GLP-1R (mouse) (UniProt O35659)
[1] = target: cynomolgus monkey GCGR (cynomolgus monkey)
[2] = target: cynomolgus monkey GLP-1R (cynomolgus monkey)
mouse GCGR (mouse) = mouse GCGR (mouse) (UniProt Q61606)
rat GLP-1R (rat) = rat GLP-1R (rat) (UniProt P32301)
rat GCGR (rat) = rat GCGR (rat) (UniProt P30082)
[3] = target: human glucagon receptor (GCGR) (human) (UniProt P47871)
Sequence of UniProt P47871 (P47871 26-477): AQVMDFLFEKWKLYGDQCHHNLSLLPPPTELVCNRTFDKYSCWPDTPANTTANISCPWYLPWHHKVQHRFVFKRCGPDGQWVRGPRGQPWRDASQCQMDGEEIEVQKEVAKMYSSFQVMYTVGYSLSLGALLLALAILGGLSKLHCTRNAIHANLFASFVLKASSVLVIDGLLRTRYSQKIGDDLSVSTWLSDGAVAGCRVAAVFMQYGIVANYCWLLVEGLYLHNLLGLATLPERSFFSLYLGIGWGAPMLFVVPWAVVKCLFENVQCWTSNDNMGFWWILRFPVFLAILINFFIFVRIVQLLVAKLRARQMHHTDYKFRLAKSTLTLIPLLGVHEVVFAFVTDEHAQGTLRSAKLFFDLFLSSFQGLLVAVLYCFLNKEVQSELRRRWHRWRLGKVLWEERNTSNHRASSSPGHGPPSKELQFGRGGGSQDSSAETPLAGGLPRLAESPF

Sequence of UniProt Q61606 (Q61606 27-485): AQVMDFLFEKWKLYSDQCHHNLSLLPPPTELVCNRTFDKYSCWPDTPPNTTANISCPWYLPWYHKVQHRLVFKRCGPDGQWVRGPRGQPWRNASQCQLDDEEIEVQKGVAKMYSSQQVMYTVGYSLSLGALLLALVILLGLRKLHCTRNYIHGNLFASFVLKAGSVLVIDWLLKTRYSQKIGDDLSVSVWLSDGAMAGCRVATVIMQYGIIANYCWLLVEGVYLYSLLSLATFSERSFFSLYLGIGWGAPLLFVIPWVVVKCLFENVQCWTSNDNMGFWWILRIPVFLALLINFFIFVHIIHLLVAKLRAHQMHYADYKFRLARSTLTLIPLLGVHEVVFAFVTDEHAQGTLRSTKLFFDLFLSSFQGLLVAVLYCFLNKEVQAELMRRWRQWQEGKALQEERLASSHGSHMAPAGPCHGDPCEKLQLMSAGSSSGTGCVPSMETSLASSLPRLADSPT
Sequence of UniProt O35659 (O35659 22-463): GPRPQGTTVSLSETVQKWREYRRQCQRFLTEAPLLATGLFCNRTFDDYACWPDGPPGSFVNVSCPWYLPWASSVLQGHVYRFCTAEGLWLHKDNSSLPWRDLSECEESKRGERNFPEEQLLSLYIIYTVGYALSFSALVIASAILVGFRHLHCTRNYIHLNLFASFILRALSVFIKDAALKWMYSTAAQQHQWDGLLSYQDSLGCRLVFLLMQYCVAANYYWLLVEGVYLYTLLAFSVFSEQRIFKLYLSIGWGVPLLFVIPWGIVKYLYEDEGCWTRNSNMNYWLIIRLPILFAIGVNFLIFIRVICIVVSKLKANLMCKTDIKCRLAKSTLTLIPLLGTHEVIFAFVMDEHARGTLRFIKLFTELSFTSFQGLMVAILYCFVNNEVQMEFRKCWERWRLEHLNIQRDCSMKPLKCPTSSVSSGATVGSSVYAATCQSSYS
Sequence of UniProt P32301 (P32301 22-463): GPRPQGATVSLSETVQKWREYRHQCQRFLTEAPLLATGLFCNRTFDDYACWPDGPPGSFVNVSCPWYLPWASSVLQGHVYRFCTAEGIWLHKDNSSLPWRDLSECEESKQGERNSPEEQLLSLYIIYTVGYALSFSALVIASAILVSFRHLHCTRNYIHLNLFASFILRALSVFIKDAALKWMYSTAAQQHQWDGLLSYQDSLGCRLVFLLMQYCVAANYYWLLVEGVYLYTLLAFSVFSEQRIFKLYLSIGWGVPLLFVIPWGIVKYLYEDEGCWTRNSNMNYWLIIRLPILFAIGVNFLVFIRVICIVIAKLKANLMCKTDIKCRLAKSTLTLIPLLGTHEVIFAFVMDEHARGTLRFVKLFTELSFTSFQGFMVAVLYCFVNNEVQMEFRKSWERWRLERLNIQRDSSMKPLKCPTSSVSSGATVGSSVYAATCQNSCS
Sequence of UniProt P30082 (P30082 27-485): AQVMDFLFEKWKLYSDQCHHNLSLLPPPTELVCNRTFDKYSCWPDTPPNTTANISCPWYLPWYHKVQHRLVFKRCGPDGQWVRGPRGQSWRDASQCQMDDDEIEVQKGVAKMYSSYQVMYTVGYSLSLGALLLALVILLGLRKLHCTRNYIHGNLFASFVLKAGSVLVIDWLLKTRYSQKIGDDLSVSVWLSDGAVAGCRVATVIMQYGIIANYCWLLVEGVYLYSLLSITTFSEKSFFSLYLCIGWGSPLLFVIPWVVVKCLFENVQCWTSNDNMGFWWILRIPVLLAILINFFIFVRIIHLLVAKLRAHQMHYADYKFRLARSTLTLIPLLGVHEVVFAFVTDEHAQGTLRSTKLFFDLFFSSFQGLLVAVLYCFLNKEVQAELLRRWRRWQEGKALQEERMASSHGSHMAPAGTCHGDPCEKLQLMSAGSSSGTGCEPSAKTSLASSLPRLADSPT

- EC50 of cAMP in clonal HEK293 cells stably expressing mouse GLP-1R (mouse GLP-1R (mouse)): 1.9 nM
- EC50 of cAMP in clonal HEK293 cells stably expressing cynomolgus monkey GCGR [1]: 0.49 nM
- EC50 of cAMP in clonal HEK293 cells stably expressing cynomolgus monkey GLP-1R [2]: 0.8 nM
- EC50 of cAMP in clonal HEK293 cells stably expressing mouse GCGR (mouse GCGR (mouse)): 6.31 nM
- EC50 of cAMP in clonal HEK293 cells stably expressing rat GLP-1R (rat GLP-1R (rat)): 0.98 nM
- EC50 of cAMP in clonal HEK293 cells stably expressing rat GCGR (rat GCGR (rat)): 12.7 nM
- EC50 of cAMP in clonal HEK293 cells stably expressing human GCGR [3]: 3.01 nM
Substance: native oxyntomodulin (peptide)
